Assay results from patent US20140030725.

Columns and labels:
[1] = test system: CBS-HaloTag (CBS-HT) fusion protein (CBS variant 1A5 cloned into pFN19K HaloTag)
[2] = test system: HQ:CBS:HT (5xHQ tag:CBS variant 1A5:HaloTag), from pFNA:HQ(5x):CBS:HT(7)

Chain of CBS-HaloTag (CBS-HT) fusion protein (CBS variant 1A5 cloned into pFN19K HaloTag) (chain, as listed by the source mutant): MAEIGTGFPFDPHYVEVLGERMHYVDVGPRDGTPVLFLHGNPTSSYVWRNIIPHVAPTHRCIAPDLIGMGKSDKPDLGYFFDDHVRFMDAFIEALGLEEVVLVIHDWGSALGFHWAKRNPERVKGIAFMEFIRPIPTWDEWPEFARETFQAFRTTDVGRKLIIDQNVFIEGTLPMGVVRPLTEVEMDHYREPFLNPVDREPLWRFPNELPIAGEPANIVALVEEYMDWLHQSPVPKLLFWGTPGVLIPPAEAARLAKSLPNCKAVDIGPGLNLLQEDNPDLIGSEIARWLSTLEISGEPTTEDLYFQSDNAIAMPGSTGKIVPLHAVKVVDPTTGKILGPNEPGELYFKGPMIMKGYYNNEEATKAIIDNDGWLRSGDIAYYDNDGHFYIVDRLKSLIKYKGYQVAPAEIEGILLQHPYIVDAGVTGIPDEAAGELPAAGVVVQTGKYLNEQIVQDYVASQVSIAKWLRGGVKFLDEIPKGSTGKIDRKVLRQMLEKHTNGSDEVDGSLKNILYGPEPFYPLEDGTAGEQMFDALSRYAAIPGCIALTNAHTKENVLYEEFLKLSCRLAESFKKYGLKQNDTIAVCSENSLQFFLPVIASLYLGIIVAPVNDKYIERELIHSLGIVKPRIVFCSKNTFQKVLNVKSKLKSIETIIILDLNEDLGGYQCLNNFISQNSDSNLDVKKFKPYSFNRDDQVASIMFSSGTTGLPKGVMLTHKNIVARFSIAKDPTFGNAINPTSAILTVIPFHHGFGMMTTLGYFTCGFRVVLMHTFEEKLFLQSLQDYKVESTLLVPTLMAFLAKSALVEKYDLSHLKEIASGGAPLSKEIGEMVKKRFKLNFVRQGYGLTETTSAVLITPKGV

recombinant caspase-3 (E. coli KRX lysate, pTS1k:caspase-3(T/S))
INDUCED luminescence (5 min; CBS-HT from wheat germ extract + E. coli lysate containing caspase-3) [1]: 4,626,173 | INDUCED luminescence, CBS-HT immobilised on HaloLink RESIN [1]: 1,635,259 | INDUCED luminescence, CBS-HT immobilised on HaloTag-ligand plate, 0 min [1]: 1,226 | INDUCED luminescence, CBS-HT immobilised on HaloTag-ligand plate, 1 min [1]: 1,636 | INDUCED luminescence, CBS-HT immobilised on HaloTag-ligand plate, 2 min [1]: 2,267 | INDUCED luminescence, CBS-HT immobilised on HaloTag-ligand plate, 3 min [1]: 2,147 | INDUCED luminescence, CBS-HT immobilised on HaloTag-ligand plate, 4 min [1]: 2,297 | INDUCED luminescence, CBS-HT immobilised on HaloTag-ligand plate, 5 min [1]: 2,857 | INDUCED luminescence, CBS-HT immobilised on HaloTag-ligand plate, 6 min [1]: 3,107 | INDUCED luminescence, CBS-HT immobilised on HaloTag-ligand plate, 7 min [1]: 3,377 | INDUCED luminescence, CBS-HT immobilised on HaloTag-ligand plate, 8 min [1]: 3,037 | INDUCED luminescence, CBS-HT immobilised on HaloTag-ligand plate, 9 min [1]: 3,667 | INDUCED luminescence, sample AS (HaloLink resin immobilisation experiment) [1]: 5,162,108 | INDUCED luminescence, sample FT (HaloLink resin immobilisation experiment) [1]: 232,117 | RESPONSE (induced/basal luminescence; 5 min; CBS-HT from wheat germ extract) [1]: 441 fold | RESPONSE, CBS-HT immobilised on HaloLink RESIN [1]: 146 fold | RESPONSE, CBS-HT immobilised on HaloTag-ligand plate, 0 min [1]: 19 fold | RESPONSE, CBS-HT immobilised on HaloTag-ligand plate, 1 min [1]: 102 fold | RESPONSE, CBS-HT immobilised on HaloTag-ligand plate, 2 min [1]: 21 fold | RESPONSE, CBS-HT immobilised on HaloTag-ligand plate, 3 min [1]: 33 fold | RESPONSE, CBS-HT immobilised on HaloTag-ligand plate, 4 min [1]: 18 fold | RESPONSE, CBS-HT immobilised on HaloTag-ligand plate, 5 min [1]: 23 fold | RESPONSE, CBS-HT immobilised on HaloTag-ligand plate, 6 min [1]: 41 fold | RESPONSE, CBS-HT immobilised on HaloTag-ligand plate, 7 min [1]: 60 fold | RESPONSE, CBS-HT immobilised on HaloTag-ligand plate, 8 min [1]: 22 fold | RESPONSE, CBS-HT immobilised on HaloTag-ligand plate, 9 min [1]: 32 fold | RESPONSE, sample AS (HaloLink resin immobilisation experiment) [1]: 175 fold | RESPONSE, sample FT (HaloLink resin immobilisation experiment) [1]: 73 fold | INDUCED luminescence, HisLink elution fraction E1 [2]: 2,951,899 | INDUCED luminescence, HisLink elution fraction E2 [2]: 40,913,496 | INDUCED luminescence, HisLink elution fraction E3 [2]: 3,287,059 | INDUCED luminescence, HisLink elution fraction E4 [2]: 215,580 | INDUCED luminescence, HisLink elution fraction E5 [2]: 48,068 | INDUCED luminescence, HisLink purification sample HSS [2]: 12,875,742 | INDUCED luminescence, HisLink purification sample NSM [2]: 5,822,003 | INDUCED luminescence, HisLink purification sample WASH [2]: 3,706,541 | INDUCED luminescence, purified HQ:CBS:HT immobilised on HaloLink plate [2]: 661,597 | RESPONSE, HisLink elution fraction E1 [2]: 699 fold | RESPONSE, HisLink elution fraction E2 [2]: 212 fold | RESPONSE, HisLink elution fraction E3 [2]: 178 fold | RESPONSE, HisLink elution fraction E4 [2]: 191 fold | RESPONSE, HisLink elution fraction E5 [2]: 178 fold | RESPONSE, HisLink purification sample HSS [2]: 43 fold | RESPONSE, HisLink purification sample NSM [2]: 33 fold | RESPONSE, HisLink purification sample WASH [2]: 479 fold | RESPONSE, purified HQ:CBS:HT immobilised on HaloLink plate [2]: 96 fold
